Experimental data published in the supplement of paper PMC10065799, “High-throughput profiling of sequence recognition by tyrosine kinases and SH2 domains using bacterial peptide display” (eLife, 2023).

target: EPHB1 (UniProt P54762); assay: phosphorylation enrichment, bacterial display (enrichment ratio); higher = better substrate or ligand; peptides without Tyr show the background
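Also: 11-residue human phosphosite peptides and single-mutation variants displayed on the E. coli surface, counted by deep sequencing, each peptide's frequency after selection divided by its frequency in the unselected input library; frequency after pTyr selection over input frequency; kinase dosed for 20-30% of maximal phosphorylation in three min.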

Chain of EPHB1 (P54762 whole entry, looked up): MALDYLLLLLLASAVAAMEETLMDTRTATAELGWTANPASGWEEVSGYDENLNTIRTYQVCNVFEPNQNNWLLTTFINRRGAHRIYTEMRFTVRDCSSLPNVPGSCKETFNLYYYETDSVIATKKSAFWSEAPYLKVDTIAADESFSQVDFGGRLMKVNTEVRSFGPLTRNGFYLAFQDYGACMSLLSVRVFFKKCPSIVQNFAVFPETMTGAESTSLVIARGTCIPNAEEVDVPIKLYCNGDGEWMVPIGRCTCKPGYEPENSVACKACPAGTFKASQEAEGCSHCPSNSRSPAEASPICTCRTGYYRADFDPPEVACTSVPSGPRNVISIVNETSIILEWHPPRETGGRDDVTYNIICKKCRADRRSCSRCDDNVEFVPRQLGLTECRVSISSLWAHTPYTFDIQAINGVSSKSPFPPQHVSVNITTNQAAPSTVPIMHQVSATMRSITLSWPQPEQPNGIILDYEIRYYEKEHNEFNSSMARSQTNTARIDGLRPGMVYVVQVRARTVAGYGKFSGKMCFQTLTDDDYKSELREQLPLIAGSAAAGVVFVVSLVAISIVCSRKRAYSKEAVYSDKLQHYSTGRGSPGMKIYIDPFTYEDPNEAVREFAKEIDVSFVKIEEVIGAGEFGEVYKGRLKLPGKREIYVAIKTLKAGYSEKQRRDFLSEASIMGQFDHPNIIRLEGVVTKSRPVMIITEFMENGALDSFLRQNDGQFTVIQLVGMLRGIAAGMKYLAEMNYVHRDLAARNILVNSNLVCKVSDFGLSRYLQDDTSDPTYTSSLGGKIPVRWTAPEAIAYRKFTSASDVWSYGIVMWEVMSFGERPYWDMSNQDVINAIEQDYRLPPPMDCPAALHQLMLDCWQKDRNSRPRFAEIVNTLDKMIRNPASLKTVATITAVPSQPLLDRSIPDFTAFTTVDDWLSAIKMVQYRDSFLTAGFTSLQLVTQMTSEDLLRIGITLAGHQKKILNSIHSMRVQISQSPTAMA

Row | Sequence | phosphorylation enrichment
1 | LFQAKYQIRFR [CRLF1_Y272_YF] | 0.698
2 | ETALHYIHDGI [GATD3A_Y250] | 0.524
3 | ECKFLYSRKEG [PTPN11_Y263_L261F] | 0.576
4 | GPGLVYRVANK [FLNB_Y1833_G1834R] | 0.471
5 | RPSELYFSKIS [SMG1_Y2253_G2258S_YF] | 2
6 | VRSNHYDPEED [TJP1_Y1346] | 0.494
7 | TDDMRYPMKSE [TGDS_Y302_N298D] | 0.378
8 | ITNLLYHVVGG [GBA_Y412_W417G] | 5.68
9 | VKANTYENYWP [GATM_Y100_K102N] | 7.05
10 | GETEQYVGGGG [FAT4_Y4980_A4977T] | 0.526
11 | IYQASYYRRGD [LTK_Y676_R673Q] | 0.659
12 | RPAPQYPHQVP [ADAM12_Y895] | 0.572
13 | RTLTHYKSAVK [ASNS_Y555] | 0.678
14 | EWKQNYEESQS [MYH7_Y1460_K1459N] | 0.542
15 | SSPQLYLVPFL [TAF4_Y652_P651L] | 4.26
16 | REVPVYTFSEP [FAM120B_Y368_D370Y_YF] | 1.9
17 | VDGSVYKLHPS [GCK_Y413] | 0.467

Row | Sequence | phosphorylation enrichment
18 | QRTMKYTTATG [MCCC1_Y41] | 0.314
19 | IALSKYGRVKR [FGF6_Y186] | 0.32
20 | KFEDVYVRICL [B3GALNT1_Y269_G271R] | 0.655
21 | KIEGIYARDET [RPL35A_Y34_V33I] | 0.536
22 | NHRNQYQALKP [CLSPN_Y887] | 0.375
23 | IGMLIYFARKA [VCAM1_Y718_I716L] | 0.518
24 | VKANTYENFWP [GATM_Y100_K102N_YF] | 3.6
25 | NTFEKYLGEEF [TF_Y669_YF] | 0.587
26 | PDGHEYIYVDP [PDGFRA_Y572] | 3.21
27 | PGPQSYPIVTG [PAX5_Y299] | 0.484
28 | GDAMLYFPSVS [GPR143_Y177_A173D_YF] | 0.511
29 | KTDKKYLMIEE [BAG3_Y451] | 0.436
30 | DKEKWYPLGNS [PIK3C2G_Y1438] | 0.43
31 | NFSKMYCNPDA [KNL1_Y489_A486S_YF] | 0.562
32 | NTGDDYDLFGG [PTPN11_Y63_Y62D_YF] | 0.586
33 | HLQDEYDFKCK [STAT1_Y170_D165H] | 0.621

target: EPHB2 (UniProt P29323); assay: as above
Sequence (P29323 whole entry, looked up): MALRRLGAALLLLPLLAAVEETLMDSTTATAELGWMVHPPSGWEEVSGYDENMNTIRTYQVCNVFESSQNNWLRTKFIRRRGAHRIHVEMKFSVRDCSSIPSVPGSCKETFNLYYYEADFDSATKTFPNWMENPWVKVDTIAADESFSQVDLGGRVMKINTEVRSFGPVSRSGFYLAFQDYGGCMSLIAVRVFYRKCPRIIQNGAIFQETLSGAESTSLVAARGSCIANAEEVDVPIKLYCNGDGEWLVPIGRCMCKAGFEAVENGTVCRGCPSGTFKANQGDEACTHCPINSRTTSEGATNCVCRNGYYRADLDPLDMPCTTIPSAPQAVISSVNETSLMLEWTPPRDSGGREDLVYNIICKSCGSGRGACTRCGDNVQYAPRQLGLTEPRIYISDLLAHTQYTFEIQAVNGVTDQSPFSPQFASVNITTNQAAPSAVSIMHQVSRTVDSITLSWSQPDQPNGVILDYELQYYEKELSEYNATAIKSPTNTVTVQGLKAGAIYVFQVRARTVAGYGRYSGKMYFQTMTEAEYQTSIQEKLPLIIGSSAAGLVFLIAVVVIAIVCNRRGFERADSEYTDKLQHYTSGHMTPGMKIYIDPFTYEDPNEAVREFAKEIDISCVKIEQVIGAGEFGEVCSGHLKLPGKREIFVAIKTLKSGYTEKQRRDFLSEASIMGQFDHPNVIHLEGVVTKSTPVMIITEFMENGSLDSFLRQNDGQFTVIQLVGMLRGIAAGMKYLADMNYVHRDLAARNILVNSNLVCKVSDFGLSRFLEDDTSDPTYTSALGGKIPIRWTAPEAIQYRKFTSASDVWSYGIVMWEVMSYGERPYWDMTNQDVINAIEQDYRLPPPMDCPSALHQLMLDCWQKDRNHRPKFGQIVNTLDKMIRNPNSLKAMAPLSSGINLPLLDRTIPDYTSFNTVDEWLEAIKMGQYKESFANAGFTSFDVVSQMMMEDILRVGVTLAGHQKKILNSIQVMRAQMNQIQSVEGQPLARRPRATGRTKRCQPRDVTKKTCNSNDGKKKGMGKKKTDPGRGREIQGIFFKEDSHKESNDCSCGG

Row | Sequence | phosphorylation enrichment
34 | LFQAKYQIRFR [CRLF1_Y272_YF] | 0.69
35 | ETALHYIHDGI [GATD3A_Y250] | 0.525
36 | ECKFLYSRKEG [PTPN11_Y263_L261F] | 0.594
37 | GPGLVYRVANK [FLNB_Y1833_G1834R] | 0.436
38 | RPSELYFSKIS [SMG1_Y2253_G2258S_YF] | 1.05
39 | VRSNHYDPEED [TJP1_Y1346] | 0.608
40 | TDDMRYPMKSE [TGDS_Y302_N298D] | 0.527
41 | ITNLLYHVVGG [GBA_Y412_W417G] | 3.36
42 | VKANTYENYWP [GATM_Y100_K102N] | 7.05
43 | GETEQYVGGGG [FAT4_Y4980_A4977T] | 0.475
44 | IYQASYYRRGD [LTK_Y676_R673Q] | 0.66
45 | RPAPQYPHQVP [ADAM12_Y895] | 0.463
46 | RTLTHYKSAVK [ASNS_Y555] | 0.411
47 | EWKQNYEESQS [MYH7_Y1460_K1459N] | 0.664
48 | SSPQLYLVPFL [TAF4_Y652_P651L] | 3.08
49 | REVPVYTFSEP [FAM120B_Y368_D370Y_YF] | 1.06
50 | VDGSVYKLHPS [GCK_Y413] | 0.543

Row | Sequence | phosphorylation enrichment
51 | QRTMKYTTATG [MCCC1_Y41] | 0.7
52 | IALSKYGRVKR [FGF6_Y186] | 0.424
53 | KFEDVYVRICL [B3GALNT1_Y269_G271R] | 0.582
54 | KIEGIYARDET [RPL35A_Y34_V33I] | 0.497
55 | NHRNQYQALKP [CLSPN_Y887] | 0.377
56 | IGMLIYFARKA [VCAM1_Y718_I716L] | 0.481
57 | VKANTYENFWP [GATM_Y100_K102N_YF] | 2.03
58 | NTFEKYLGEEF [TF_Y669_YF] | 0.572
59 | PDGHEYIYVDP [PDGFRA_Y572] | 2.66
60 | PGPQSYPIVTG [PAX5_Y299] | 0.538
61 | GDAMLYFPSVS [GPR143_Y177_A173D_YF] | 0.446
62 | KTDKKYLMIEE [BAG3_Y451] | 0.635
63 | DKEKWYPLGNS [PIK3C2G_Y1438] | 0.441
64 | NFSKMYCNPDA [KNL1_Y489_A486S_YF] | 0.613
65 | NTGDDYDLFGG [PTPN11_Y63_Y62D_YF] | 0.608
66 | HLQDEYDFKCK [STAT1_Y170_D165H] | 0.585

target: FGFR3 (UniProt P22607); assay: as above
Sequence (P22607 whole entry, looked up): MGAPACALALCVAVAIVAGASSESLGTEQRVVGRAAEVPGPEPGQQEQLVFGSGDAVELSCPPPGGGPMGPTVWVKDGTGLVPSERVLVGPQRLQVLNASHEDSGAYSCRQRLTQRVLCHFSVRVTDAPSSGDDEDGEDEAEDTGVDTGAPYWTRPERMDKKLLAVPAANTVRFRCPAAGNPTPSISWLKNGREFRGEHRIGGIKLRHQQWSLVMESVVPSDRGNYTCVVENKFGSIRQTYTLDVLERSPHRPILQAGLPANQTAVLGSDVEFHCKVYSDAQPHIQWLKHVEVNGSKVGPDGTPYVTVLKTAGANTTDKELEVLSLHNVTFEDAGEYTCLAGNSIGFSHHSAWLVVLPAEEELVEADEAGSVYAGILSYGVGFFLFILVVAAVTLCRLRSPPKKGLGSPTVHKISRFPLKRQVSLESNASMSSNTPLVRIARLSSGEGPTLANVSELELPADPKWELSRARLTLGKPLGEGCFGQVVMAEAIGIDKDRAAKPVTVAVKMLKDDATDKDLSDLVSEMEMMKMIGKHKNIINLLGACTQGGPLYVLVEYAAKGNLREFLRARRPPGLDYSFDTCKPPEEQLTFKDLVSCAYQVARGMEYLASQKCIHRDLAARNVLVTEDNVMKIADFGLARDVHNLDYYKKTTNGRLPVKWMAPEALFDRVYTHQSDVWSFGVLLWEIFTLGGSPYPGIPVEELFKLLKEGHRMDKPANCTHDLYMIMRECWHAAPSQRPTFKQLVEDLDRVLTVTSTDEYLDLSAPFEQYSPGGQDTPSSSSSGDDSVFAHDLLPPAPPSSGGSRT

Row | Sequence | phosphorylation enrichment
67 | LFQAKYQIRFR [CRLF1_Y272_YF] | 1.35
68 | ETALHYIHDGI [GATD3A_Y250] | 0.637
69 | ECKFLYSRKEG [PTPN11_Y263_L261F] | 0.593
70 | GPGLVYRVANK [FLNB_Y1833_G1834R] | 0.597
71 | RPSELYFSKIS [SMG1_Y2253_G2258S_YF] | 1.1
72 | VRSNHYDPEED [TJP1_Y1346] | 0.748
73 | TDDMRYPMKSE [TGDS_Y302_N298D] | 0.621
74 | ITNLLYHVVGG [GBA_Y412_W417G] | 5.48
75 | VKANTYENYWP [GATM_Y100_K102N] | 0.818
76 | GETEQYVGGGG [FAT4_Y4980_A4977T] | 0.599
77 | IYQASYYRRGD [LTK_Y676_R673Q] | 0.473
78 | RPAPQYPHQVP [ADAM12_Y895] | 1.03
79 | RTLTHYKSAVK [ASNS_Y555] | 0.545
80 | EWKQNYEESQS [MYH7_Y1460_K1459N] | 0.692
81 | SSPQLYLVPFL [TAF4_Y652_P651L] | 2.11
82 | REVPVYTFSEP [FAM120B_Y368_D370Y_YF] | 1.33
83 | VDGSVYKLHPS [GCK_Y413] | 0.583

Row | Sequence | phosphorylation enrichment
84 | QRTMKYTTATG [MCCC1_Y41] | 0.518
85 | IALSKYGRVKR [FGF6_Y186] | 0.373
86 | KFEDVYVRICL [B3GALNT1_Y269_G271R] | 0.926
87 | KIEGIYARDET [RPL35A_Y34_V33I] | 0.619
88 | NHRNQYQALKP [CLSPN_Y887] | 0.438
89 | IGMLIYFARKA [VCAM1_Y718_I716L] | 0.456
90 | VKANTYENFWP [GATM_Y100_K102N_YF] | 0.661
91 | NTFEKYLGEEF [TF_Y669_YF] | 0.75
92 | PDGHEYIYVDP [PDGFRA_Y572] | 7.36
93 | PGPQSYPIVTG [PAX5_Y299] | 0.685
94 | GDAMLYFPSVS [GPR143_Y177_A173D_YF] | 0.98
95 | KTDKKYLMIEE [BAG3_Y451] | 0.746
96 | DKEKWYPLGNS [PIK3C2G_Y1438] | 0.569
97 | NFSKMYCNPDA [KNL1_Y489_A486S_YF] | 0.802
98 | NTGDDYDLFGG [PTPN11_Y63_Y62D_YF] | 0.652
99 | HLQDEYDFKCK [STAT1_Y170_D165H] | 0.924

tested on: c-Src; assay: as above

Row | Sequence | phosphorylation enrichment
100 | LFQAKYQIRFR [CRLF1_Y272_YF] | 1.02
101 | ETALHYIHDGI [GATD3A_Y250] | 0.48
102 | ECKFLYSRKEG [PTPN11_Y263_L261F] | 0.423
103 | GPGLVYRVANK [FLNB_Y1833_G1834R] | 0.541
104 | RPSELYFSKIS [SMG1_Y2253_G2258S_YF] | 0.691
105 | VRSNHYDPEED [TJP1_Y1346] | 0.445
106 | TDDMRYPMKSE [TGDS_Y302_N298D] | 0.455
107 | ITNLLYHVVGG [GBA_Y412_W417G] | 3.81
108 | VKANTYENYWP [GATM_Y100_K102N] | 3.07
109 | GETEQYVGGGG [FAT4_Y4980_A4977T] | 0.419
110 | IYQASYYRRGD [LTK_Y676_R673Q] | 6.2
111 | RPAPQYPHQVP [ADAM12_Y895] | 0.819
112 | RTLTHYKSAVK [ASNS_Y555] | 0.588
113 | EWKQNYEESQS [MYH7_Y1460_K1459N] | 0.461
114 | SSPQLYLVPFL [TAF4_Y652_P651L] | 0.721
115 | REVPVYTFSEP [FAM120B_Y368_D370Y_YF] | 9.04
116 | VDGSVYKLHPS [GCK_Y413] | 3.28

Row | Sequence | phosphorylation enrichment
117 | QRTMKYTTATG [MCCC1_Y41] | 0.411
118 | IALSKYGRVKR [FGF6_Y186] | 0.463
119 | KFEDVYVRICL [B3GALNT1_Y269_G271R] | 0.545
120 | KIEGIYARDET [RPL35A_Y34_V33I] | 1.09
121 | NHRNQYQALKP [CLSPN_Y887] | 0.404
122 | IGMLIYFARKA [VCAM1_Y718_I716L] | 0.424
123 | VKANTYENFWP [GATM_Y100_K102N_YF] | 4.08
124 | NTFEKYLGEEF [TF_Y669_YF] | 0.429
125 | PDGHEYIYVDP [PDGFRA_Y572] | 3.24
126 | PGPQSYPIVTG [PAX5_Y299] | 0.4
127 | GDAMLYFPSVS [GPR143_Y177_A173D_YF] | 0.746
128 | KTDKKYLMIEE [BAG3_Y451] | 0.532
129 | DKEKWYPLGNS [PIK3C2G_Y1438] | 0.345
130 | NFSKMYCNPDA [KNL1_Y489_A486S_YF] | 0.426
131 | NTGDDYDLFGG [PTPN11_Y63_Y62D_YF] | 1.02
132 | HLQDEYDFKCK [STAT1_Y170_D165H] | 0.871
